Columns and labels:
[1] = molecular target: SARS-CoV-2 spike protein receptor binding domain (RBD) (SARS-CoV-2, UniProt P0DTC2 319-541)
[2] = molecular target: human neonatal Fc receptor (FcRn) (human, UniProt P55899 24-365); experiment: SPR; pH 6.0
Chain of human neonatal Fc receptor (FcRn) (P55899 24-297, chain 1 of 2): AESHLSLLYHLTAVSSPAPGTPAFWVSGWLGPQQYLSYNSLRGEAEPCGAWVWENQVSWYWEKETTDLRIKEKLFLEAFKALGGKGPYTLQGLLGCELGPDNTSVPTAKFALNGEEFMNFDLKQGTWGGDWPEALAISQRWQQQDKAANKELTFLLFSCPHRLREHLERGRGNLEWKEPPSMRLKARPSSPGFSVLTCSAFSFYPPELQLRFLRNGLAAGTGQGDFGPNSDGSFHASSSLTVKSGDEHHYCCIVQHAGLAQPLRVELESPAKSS
Chain of human neonatal Fc receptor (FcRn) (chain, as listed by the source, chain 2 of 2): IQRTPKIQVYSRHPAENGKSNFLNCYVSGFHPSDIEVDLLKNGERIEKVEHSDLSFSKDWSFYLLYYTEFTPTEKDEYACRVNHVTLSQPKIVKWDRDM

B1: romlusevimab (BRII-198) (antibody)
chain 1: QVQLVQSGSELKKPGASVKVSCKASGYTFTTYVMNWVRQAPGQGLEWMGWINTNTGNPTYAQGFTGRFVFSLDTSVSTASLQISSLKAEDTAVYYCSSEITTLGGMDVWGQGTTVTVSS
chain 2: SYVLTQPPSVSVAPGKTARITCGGNNIGSKSVHWYQQKPGQAPVLVIYYDSDRPSGIPERFSGSNSGNTATLTISGVEAGDEADYYCQVWDSISDHRVFGGGTKLTVL
IC50 [1]: > 200 nM

B2: P2B-1G5 (precursor of romlusevimab) (antibody)
chain 1: QVQLVQSGSELKKPGASVKVSCKASGYTFTTYVMNWVRQAPGQGLEWMGWINTNTGNPTYAQGFTGRFVFSLDTSVSTASLQISSLKAEDTAVYYCSCEITTLGGMDVWGQGTTVTVSS
chain 2: SYVLTQPPSVSVAPGKTARITCGGNNIGSKSVHWYQQKPGQAPVLVIYYDSDRPSGIPERFSGSNSGNTATLTISGVEAGDEADYYCQVWDSISDHRVFGGGTKLTVL
modifications: soluble extracellular FCGRT with beta-2-microglobulin assumed by convention (subunits and limits not given); assayed at pH 6.0
Kd [2]: 2.51 nM
